{
  "source": "patent US10294487B2",
  "about": "“Methods and compositions involving ALS variants with native substrate preference” (E I DU PONT DE NEMOURS AND COMPANY, priority 2012, dated 2019)",
  "molecules": {"B1": {"name": "GM-ALS_G102S: Glycine Max ALS1 variant with a G→S mutation at position 102 (protein)", "chain": "MAATASRTTRFSSSSSHPTFPKRITRSTLPLSHQTLTKPNHALKIKCSISKPPTAAPFTKEAPTTEPFVSRFASGEPRKGADILVEALERQGVTTVFAYPGSASMEIHQALTRSAAIRNVLPRHEQGGVFAAEGYARSSGLPGVCIATSGPGATNLVSGLADALMDSVPVVAITGQVPRRMIGTDAFQETPIVEVSRSITKHNYLILDVDDIPRVVAEAFFVATSGRPGPVLIDIPKDVQQQLAVPNWDEPVNLPGYLARLPRPPAEAQLEHIVRLIMEAQKPVLYVGGGSLNSSAELRRFVELTGIPVASTLMGLGTFPIGDEYSLQMLGMHGTVYANYAVDNSDLLLAFGVRFDDRVTGKLEAFASRAKIVHIDIDSAEIGKNKQAHVSVCADLKLALKGINMILEEKGVEGKFDLGGWREEINVQKHKFPLGYKTFQDAISPQHAIEVLDELTNGDAIVSTGVGQHQMWAAQFYKYKRPRQWLTSGGLGAMGFGLPAAIGAAVANPGAVVVDIDGDGSFIMNVQELATIRVENLPVKILLLNNQHLGMVVQWEDRFYKSNRAHTYLGDPSSESEIFPNMLKFADACGIPAARVTKKEELRAAIQRMLDTPGPYLLDVIVPHQEHVLPMIPSNGSFKDVITEGDGRTRY", "modifications": "ALS1 variant G102S"}, "B2": {"name": "GM-ALS_G102S_P178S: Glycine Max ALS1 with G→S at position 102 and P→S at position 178 (protein)", "chain": "MAATASRTTRFSSSSSHPTFPKRITRSTLPLSHQTLTKPNHALKIKCSISKPPTAAPFTKEAPTTEPFVSRFASGEPRKGADILVEALERQGVTTVFAYPGSASMEIHQALTRSAAIRNVLPRHEQGGVFAAEGYARSSGLPGVCIATSGPGATNLVSGLADALMDSVPVVAITGQVSRRMIGTDAFQETPIVEVSRSITKHNYLILDVDDIPRVVAEAFFVATSGRPGPVLIDIPKDVQQQLAVPNWDEPVNLPGYLARLPRPPAEAQLEHIVRLIMEAQKPVLYVGGGSLNSSAELRRFVELTGIPVASTLMGLGTFPIGDEYSLQMLGMHGTVYANYAVDNSDLLLAFGVRFDDRVTGKLEAFASRAKIVHIDIDSAEIGKNKQAHVSVCADLKLALKGINMILEEKGVEGKFDLGGWREEINVQKHKFPLGYKTFQDAISPQHAIEVLDELTNGDAIVSTGVGQHQMWAAQFYKYKRPRQWLTSGGLGAMGFGLPAAIGAAVANPGAVVVDIDGDGSFIMNVQELATIRVENLPVKILLLNNQHLGMVVQWEDRFYKSNRAHTYLGDPSSESEIFPNMLKFADACGIPAARVTKKEELRAAIQRMLDTPGPYLLDVIVPHQEHVLPMIPSNGSFKDVITEGDGRTRY", "modifications": "ALS1 variant G102S P178S"}, "B3": {"name": "GM-ALS_A103T: Glycine Max ALS1 variant with a A→T mutation at position 103 (protein)", "chain": "MAATASRTTRFSSSSSHPTFPKRITRSTLPLSHQTLTKPNHALKIKCSISKPPTAAPFTKEAPTTEPFVSRFASGEPRKGADILVEALERQGVTTVFAYPGGTSMEIHQALTRSAAIRNVLPRHEQGGVFAAEGYARSSGLPGVCIATSGPGATNLVSGLADALMDSVPVVAITGQVPRRMIGTDAFQETPIVEVSRSITKHNYLILDVDDIPRVVAEAFFVATSGRPGPVLIDIPKDVQQQLAVPNWDEPVNLPGYLARLPRPPAEAQLEHIVRLIMEAQKPVLYVGGGSLNSSAELRRFVELTGIPVASTLMGLGTFPIGDEYSLQMLGMHGTVYANYAVDNSDLLLAFGVRFDDRVTGKLEAFASRAKIVHIDIDSAEIGKNKQAHVSVCADLKLALKGINMILEEKGVEGKFDLGGWREEINVQKHKFPLGYKTFQDAISPQHAIEVLDELTNGDAIVSTGVGQHQMWAAQFYKYKRPRQWLTSGGLGAMGFGLPAAIGAAVANPGAVVVDIDGDGSFIMNVQELATIRVENLPVKILLLNNQHLGMVVQWEDRFYKSNRAHTYLGDPSSESEIFPNMLKFADACGIPAARVTKKEELRAAIQRMLDTPGPYLLDVIVPHQEHVLPMIPSNGSFKDVITEGDGRTRY", "modifications": "ALS1 variant A103T"}, "B4": {"name": "GM-ALS_G102S_D357E: Glycine Max ALS1 with G→S at position 102 and D→E at position 357 (protein)", "chain": "MAATASRTTRFSSSSSHPTFPKRITRSTLPLSHQTLTKPNHALKIKCSISKPPTAAPFTKEAPTTEPFVSRFASGEPRKGADILVEALERQGVTTVFAYPGSASMEIHQALTRSAAIRNVLPRHEQGGVFAAEGYARSSGLPGVCIATSGPGATNLVSGLADALMDSVPVVAITGQVPRRMIGTDAFQETPIVEVSRSITKHNYLILDVDDIPRVVAEAFFVATSGRPGPVLIDIPKDVQQQLAVPNWDEPVNLPGYLARLPRPPAEAQLEHIVRLIMEAQKPVLYVGGGSLNSSAELRRFVELTGIPVASTLMGLGTFPIGDEYSLQMLGMHGTVYANYAVDNSDLLLAFGVRFDERVTGKLEAFASRAKIVHIDIDSAEIGKNKQAHVSVCADLKLALKGINMILEEKGVEGKFDLGGWREEINVQKHKFPLGYKTFQDAISPQHAIEVLDELTNGDAIVSTGVGQHQMWAAQFYKYKRPRQWLTSGGLGAMGFGLPAAIGAAVANPGAVVVDIDGDGSFIMNVQELATIRVENLPVKILLLNNQHLGMVVQWEDRFYKSNRAHTYLGDPSSESEIFPNMLKFADACGIPAARVTKKEELRAAIQRMLDTPGPYLLDVIVPHQEHVLPMIPSNGSFKDVITEGDGRTRY", "modifications": "ALS1 variant G102S D357E"}, "B5": {"name": "GM-ALS_G102S_D357N: Glycine Max ALS1 with G→S at position 102 and D→N at position 357 (protein)", "chain": "MAATASRTTRFSSSSSHPTFPKRITRSTLPLSHQTLTKPNHALKIKCSISKPPTAAPFTKEAPTTEPFVSRFASGEPRKGADILVEALERQGVTTVFAYPGSASMEIHQALTRSAAIRNVLPRHEQGGVFAAEGYARSSGLPGVCIATSGPGATNLVSGLADALMDSVPVVAITGQVPRRMIGTDAFQETPIVEVSRSITKHNYLILDVDDIPRVVAEAFFVATSGRPGPVLIDIPKDVQQQLAVPNWDEPVNLPGYLARLPRPPAEAQLEHIVRLIMEAQKPVLYVGGGSLNSSAELRRFVELTGIPVASTLMGLGTFPIGDEYSLQMLGMHGTVYANYAVDNSDLLLAFGVRFDNRVTGKLEAFASRAKIVHIDIDSAEIGKNKQAHVSVCADLKLALKGINMILEEKGVEGKFDLGGWREEINVQKHKFPLGYKTFQDAISPQHAIEVLDELTNGDAIVSTGVGQHQMWAAQFYKYKRPRQWLTSGGLGAMGFGLPAAIGAAVANPGAVVVDIDGDGSFIMNVQELATIRVENLPVKILLLNNQHLGMVVQWEDRFYKSNRAHTYLGDPSSESEIFPNMLKFADACGIPAARVTKKEELRAAIQRMLDTPGPYLLDVIVPHQEHVLPMIPSNGSFKDVITEGDGRTRY", "modifications": "ALS1 variant G102S D357N"}},
  "key": {"G. max ALS1 protein [1]": {"test_system": "G. max ALS1 protein", "assay": "Substrate specificity ratio (Rf), pyruvate versus 2-ketobutyrate, LC-MS of reduced products", "assay_type": "biochemical, Glycine max", "conditions": "ratio of [pyruvate] to [2-ketobutyrate] giving equal rates of acetolactate and acetohydroxybutyrate formation; 25 mM pyruvate", "source_text": "The “substrate specificity ratio”, or “Rf”, characterizes the specificity of the ALS enzyme for AHB formation relative to AL formation (Gollop et al. (1989) Biochemistry 28:6310-6317). Rf is the ratio of [pyruvate] to [2-ketobutyrate] that results in equal rates of formation of acetolactate and acetohydroxybutyrate. Rf is a constant at all substrate concentrations. The substrate specificity ratio is ˜114 for the wild type Glycine max ALS1 enzyme (SEQ ID NO:1) compared to ˜3 for the highly resistant allele (HRA) double mutant variant (SEQ ID NO: 10) of the Glycine max ALS1. The soybean HRA sequence is disclosed, for example, in WO2007/024782, herein incorporated by reference.\nSubstrate preference was determined using the assay described in Example 3; however, the assay was conducted using a constant concentration of pyruvate (25 mM) and varying concentrations of the second substrate, 2-ketobutyrate. Each reaction involving a specific ratio of pyruvate to 2-ketobutyrate, after a set period of time, was quenched by addition of sodium borohydride (7-fold excess) to form the reduced adducts of the products of the two substrates namely; reduced acetolactate for the reaction with pyruvate and reduced aceto hydroxybutyrate for the 2-ketobutyrate reaction. The relative amounts of the two reduced products was determined by first, chromatographic separation using a 4.6×250 mm dC18 column (Atlantis) equilibrated with a 0.1% formic acid solution and subsequent elution using a methanol gradient at 0.7 ml/min, followed by detection using a Thermo FINNIGAN® LTQ® Mass Spectrometer (MS). The products of the two reactions were quantified by integration of the MS signals. The % of the amount of each of the reduced products was then plotted versus the concentration of 2-ketobutyrate. As the 2-ketobutyrate amount increased there was a consequent increase in reduced acetohydroxybutyrate (AHB) and decrease in reduced acetolactate (AL). […] The substrate specificity ratio was ˜114 for the wild type enzyme compared to 3 for the highly resistant allele (HRA) double mutant ALS variant (SEQ ID NO: 10)."}, "G. max ALS1 protein [2]": {"test_system": "G. max ALS1 protein", "assay": "Colorimetric ALS kinetic assay (Km, kcat) with pyruvate as substrate", "assay_type": "biochemical, Glycine max", "method": "A survey of known ALS (AcetoLactate Synthase) gene variants (Table 2) was performed, and a number of ALS variants were selected for kinetic evaluation based on breadth and strength of insensitivity to ALS-inhibitor herbicides as well as kinetic activity parameters including the ratio of substrate preferences. The selected ALS gene variants (Table 3) were generated by PCR mediated site-directed mutagenesis. Finnzymes PHUSION® DNA polymerase (Cat. No. F-530S) was used for the PCR reactions, following the instructions for recommended temperatures and cycles in the PHUSION® protocol. Some mutagenesis reactions were assisted by the use of IN-FUSION® enzyme (Clontech Cat. No. 639620) to circularize a linear plasmid with the mutation located within the 15 nucleotide overlapping ends, via recombination following the manufacturer's protocol for primer design and reaction conditions. The ALS genes, beginning with encoded amino acids SISK, (S48 to K51 in the G. max ALS1 protein (SEQ ID NO:1) corresponding to the mature protein N-terminus of the chloroplast localized enzyme), were cloned into the PMAL® E. coli expression vector (New England Biolabs) to express ALS as a fusion protein with a Maltose-Binding Protein (MBP) at the N-terminus with a thrombin site for cleavage and a His-6 tag for affinity purification. All in vitro protein characterization described in the examples was carried out with the isolated proteins after cleavage from the His-MBP fusion partner.\nKm and Kcat determinations for recombinant ALS variants (with respect to pyruvate as the substrate) were performed using a colorimetric assay. ALS assays were carried out in 96-well microplates with 150 ul reaction containing 25 mM potassium phosphate, 0.2 mg/ml BSA, 15 mM MgCl2, 0.7 mM TPP, 28 uM FAD and 0-100 mM sodium pyruvate. Reactions were initiated by the addition of ALS enzyme to a final amount of 0.8 ug/well. Parameters for Km and Vmax were determined by fitting the velocity versus substrate concentration data to a rectangular hyperbola using GraphPad Prism software. Kcat values were determined from Vmax based on protein concentration in the reactions."}},
  "data": [
    {"molecule": "B1", "values": [
      {"measurement": "Substrate specificity ratio (Rf)", "setting": "G. max ALS1 protein [1]", "result": 10.2},
      {"measurement": "Km", "setting": "G. max ALS1 protein [2]", "result": 3.5, "unit": "mM"},
      {"measurement": "kcat", "setting": "G. max ALS1 protein [2]", "result": 1.33, "unit": "s⁻¹"}
    ]},
    {"molecule": "B2", "values": [
      {"measurement": "Substrate specificity ratio (Rf)", "setting": "G. max ALS1 protein [1]", "result": 12.0},
      {"measurement": "Km", "setting": "G. max ALS1 protein [2]", "result": 5, "unit": "mM"},
      {"measurement": "kcat", "setting": "G. max ALS1 protein [2]", "result": 1.47, "unit": "s⁻¹"}
    ]},
    {"molecule": "B3", "values": [
      {"measurement": "Substrate specificity ratio (Rf)", "setting": "G. max ALS1 protein [1]", "result": 83.3},
      {"measurement": "Km", "setting": "G. max ALS1 protein [2]", "result": 3, "unit": "mM"},
      {"measurement": "kcat", "setting": "G. max ALS1 protein [2]", "result": 1.82, "unit": "s⁻¹"}
    ]},
    {"molecule": "B4", "values": [
      {"measurement": "Substrate specificity ratio (Rf)", "setting": "G. max ALS1 protein [1]", "result": 16.9},
      {"measurement": "Km", "setting": "G. max ALS1 protein [2]", "result": 8, "unit": "mM"},
      {"measurement": "kcat", "setting": "G. max ALS1 protein [2]", "result": 1.75, "unit": "s⁻¹"}
    ]},
    {"molecule": "B5", "values": [
      {"measurement": "Substrate specificity ratio (Rf)", "setting": "G. max ALS1 protein [1]", "result": 10.7},
      {"measurement": "Km", "setting": "G. max ALS1 protein [2]", "result": 11, "unit": "mM"},
      {"measurement": "kcat", "setting": "G. max ALS1 protein [2]", "result": 1.13, "unit": "s⁻¹"}
    ]}
  ]
}
